Laboratory results: patent US9926369B2, “Methods for treating hepatocellular cancer by administering an anti-Ang-2 antibody” (Regeneron Pharmaceuticals, Inc., priority 2009, dated 2018)

Tests used:
[1] = biological target: T1, hAng-1-WT binding to hTie-2-mFc (Homo sapiens, UniProt Q15389); assay: Biosensor SPR blocking of hAng-1-WT binding to hTie-2-mFc-ecto surface; type: biochemical; details: for Percent of Neg. Ctrl Binding (hAng-1 WT) / Specific Bound RU (hAng-1 WT): 10 nM hAng-1-WT
T1 sequence (Q15389 20-498 limits assumed): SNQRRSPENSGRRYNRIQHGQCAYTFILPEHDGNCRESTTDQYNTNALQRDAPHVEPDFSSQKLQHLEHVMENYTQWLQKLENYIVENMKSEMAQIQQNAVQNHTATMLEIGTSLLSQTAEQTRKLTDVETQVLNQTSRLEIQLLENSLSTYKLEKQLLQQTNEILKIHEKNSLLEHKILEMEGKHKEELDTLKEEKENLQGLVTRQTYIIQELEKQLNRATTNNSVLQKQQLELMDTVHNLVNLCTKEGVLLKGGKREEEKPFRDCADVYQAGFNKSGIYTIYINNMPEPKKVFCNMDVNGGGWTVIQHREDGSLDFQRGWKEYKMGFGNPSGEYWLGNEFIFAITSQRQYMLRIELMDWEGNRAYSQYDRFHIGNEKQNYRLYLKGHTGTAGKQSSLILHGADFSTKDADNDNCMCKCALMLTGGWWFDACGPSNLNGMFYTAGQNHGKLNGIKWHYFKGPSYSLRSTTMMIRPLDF
Method: In an effort to further assess the ability of selected anti-hAng-2 antibodies to block the binding of Ang-1 to Tie-2, a biosensor surface plasmon resonance experiment was conducted. In this experiment, a human Tie-2 full-length extracellular domain construct (hTie-2-mFc-ecto) was amine-coupled on a BIACORE™ chip to create a receptor coated surface. Selected anti-hAng-2 antibodies and control constructs, at 1 μM (100-fold excess over antigen), were premixed with 10 nM of hAng-1-WT, followed by 60 minutes incubation at 25° C. to allow antibody-antigen binding to reach equilibrium to form equilibrated solutions. The equilibrated solutions were injected over the receptor surfaces at 5 μL/min for 5 minutes at 25° C. Changes in resonance units (RU) due to the binding of the hAng-1-WT to hTie-2-mFc were determined. An irrelevant peptibody construct with no binding to hAng-1 was included in this experiment to establish the 0% blocking baseline, and a human Tie-2-mFc construct was used as a positive control for blocking. The amount of Ang-1 bound to Tie-2 following antibody preincubation, expressed as a percentage of the amount of Ang-1 bound to Tie-2 following negative control preincubation, is shown in Table 20. (A greater amount of Ang-1 binding to Tie-2 signifies a lower degree of antibody blocking).
The foregoing experiment was repeated using different amounts of Ang-2 blockers and controls. In particular, a human Tie-2 full-length extracellular domain construct (hTie-2-mFc-ecto) was amine-coupled on a BIACORE™ chip to create a receptor-coated surface. Selected anti-hAng-2 antibodies and control constructs (50 or 150 nM) were mixed with hAng-2-WT (25 nM) followed by 60 minutes incubation at 25° C. to allow antibody-antigen binding to reach equilibrium. The equilibrated solutions were injected over the receptor surfaces at 10 μL/min for 5 minutes at 25° C. To evaluate the ability of the selected anti-hAng-2 antibodies to block Ang-1-WT binding to hTie-2, a similar procedure was followed except the antibodies were tested at three concentrations (50, 100 or 1000 nM) and incubated with 10 nM of hAng-1-WT. Changes in resonance units (RU) due to the binding of the Ang-2-WT or hAng-1-WT to hTie-2-mFc were determined. An irrelevant antibody with no binding to either angiopoietin was included in these experiments to establish the 0% blocking baseline, and a human Tie-2-mFc construct was used as a positive control for blocking. Results are summarized in Tables 21 (hAng-1 applied to a hTie-2 surface) and 22 (hAng-2 applied to a hTie-2 surface).

Dimeric Monkey Ang-2FD = assay: Surface plasmon resonance binding to dimeric monkey Ang-2FD conjugated to human IgG1; design: species or system Macca fascicularis; details: SPR, room temperature
Method: (§1) Equilibrium dissociation constants (KD values) for the binding of selected purified Ang-2 antibodies to dimeric fibrinogen-like domain of human (SEQ ID NO: 519), mouse (Mus musculus; SEQ ID NO: 520) and monkey (Macca fascicularis; SEQ ID NO: 521) Ang-2 (Ang-2FD) conjugated to human IgG1 (SEQ ID NO:528) were determined by surface kinetics using a real-time biosensor surface plasmon resonance assay. Antibody was captured on a goat anti-mouse IgG polyclonal antibody surface, a goat anti-human κ polyclonal antibody (Southern Biotech, Birmingham, Ala.) surface or a goat anti-human IgG polyclonal antibody (Jackson Immuno Research Lab, West Grove, Pa.) surface created through direct amine coupling to a BIACORE™ CM5 sensor chip to form a captured antibody surface. Varying concentrations (ranging from 50 nM to 6.25 nM) of protein were injected at 100 μl/min over captured antibody surface for 90 seconds. Antigen-antibody binding and dissociation were monitored in real time at room temperature. Kinetic analysis was performed to calculate KD and half-life of antigen/antibody complex dissociation.
The above experiment was repeated using selected purified anti-Ang-2 antibodies cloned onto human IgG1.

hAng-2-WT = biological target: T2, hAng-2-WT (Homo sapiens, UniProt O15123); assay: SPR binding to wild-type human Ang-2 (Table 8)
T2 construct: wild-type human Ang-2 (hAng-2-WT)
T2 sequence (O15123 19-496): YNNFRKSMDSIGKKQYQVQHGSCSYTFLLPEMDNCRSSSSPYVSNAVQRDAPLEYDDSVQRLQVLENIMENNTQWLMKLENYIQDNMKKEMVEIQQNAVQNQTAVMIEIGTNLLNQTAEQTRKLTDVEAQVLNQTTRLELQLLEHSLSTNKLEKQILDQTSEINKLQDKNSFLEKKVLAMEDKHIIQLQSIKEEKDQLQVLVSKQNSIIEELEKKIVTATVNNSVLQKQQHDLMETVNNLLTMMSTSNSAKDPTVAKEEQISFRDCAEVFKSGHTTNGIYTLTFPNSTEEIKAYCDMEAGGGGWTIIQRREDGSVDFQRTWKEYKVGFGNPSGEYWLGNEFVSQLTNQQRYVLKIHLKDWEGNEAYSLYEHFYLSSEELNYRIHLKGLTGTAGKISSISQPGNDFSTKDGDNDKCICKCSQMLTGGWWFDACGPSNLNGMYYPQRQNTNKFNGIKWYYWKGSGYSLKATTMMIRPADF
Method: as §1
In yet another experiment, KD values for selected purified antibodies that bind to wild-type human Ang-2 (hAng-2-WT; SEQ ID NO: 518) and the fibrinogen-like domain of human Ang2 (hAng-2FD) were determined (as described above).

[2] = 1 μM antibody premixed with 10 nM hAng-1-WT, 25° C.

Dimeric Monkey Ang-2FD, sequence (as listed by the source): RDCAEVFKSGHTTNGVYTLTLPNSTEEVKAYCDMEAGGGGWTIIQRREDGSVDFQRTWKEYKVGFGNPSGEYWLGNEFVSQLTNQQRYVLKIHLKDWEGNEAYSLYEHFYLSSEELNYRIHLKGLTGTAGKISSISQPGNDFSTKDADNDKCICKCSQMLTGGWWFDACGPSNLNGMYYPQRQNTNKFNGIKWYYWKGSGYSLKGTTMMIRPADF

## H1H685P: human anti-Ang-2 antibody, HCVR/LCVR SEQ ID NOs 18/20; also referred to as mAb1 [Antibody H1H685P]
[1]
  Blocking of binding of human Ang-1 to human Tie-2 (in words): do not significantly block
[1]; 50 nM antibody or control
  Percent of Neg. Ctrl Binding (hAng-1 WT): 95%
  Specific Bound RU (hAng-1 WT): 299 RU
[1]; 100 nM antibody or control
  Percent of Neg. Ctrl Binding (hAng-1 WT): 95%
  Specific Bound RU (hAng-1 WT): 291 RU
[1]; [2]
  Percent of Negative Control Binding (hAng-1-WT to Tie-2): 81%
  RU (average), hAng-1-WT bound to hTie-2-mFc: 137 RU
[1]; 1000 nM antibody or control
  Percent of Neg. Ctrl Binding (hAng-1 WT): 105%
  Specific Bound RU (hAng-1 WT): 289 RU
Dimeric Monkey Ang-2FD
  Kd: 0.0994 nM
hAng-2-WT
  Kd: 0.0476 nM
